In patent publication US20050058639A1 (AstraZeneca / MedImmune, published 2005):

Columns and labels:
[1] = molecular target: T1, human monocyte chemo-attractant protein-1 (MCP-1) (human, UniProt P13500 24-99); assay: ELISA, coated antigen; ELISA, purified clone 1:50 on coated hMCP-1 (2 ug/mL), cross-reactivity panel
T1 construct: 76-residue recombinant protein from E. coli, bought (PeproTech); also called hMCP-1(MCAF); human MCP-1
Method: Determining cross-reactivity of anti-MCP-1 antibodies with other chemokines. ELISA plates (Fisher Cat. No. 12-565-136) were coated with 50 μl/well of MCP-1, MCP-2, MCP-3, MCP-4, RANTES, GRO-alpha, MIP-1 alpha, eotaxin, rat MCP-1 and mouse JE (2 μg/ml) in coating buffer (0.1 M carbonate buffer, pH 9.6, NaHCO₃ 8.4 g/L, then incubated at 4° C. overnight. After incubation, the plates were washed with washing buffer (0.05% Tween 20 in PBS) three times. 200 μL/well blocking buffer (0.5% BSA, 0.1% Tween 20, 0.01% Thimerosal in 1×PBS) were added and the plates incubated at room temperature for 1 hour. After incubation, the plates were washed with washing buffer three times. 50 μL/well of hybridoma supernatants, and positive and negative controls (positive control was anti-MCP-1 antibody purchased from R&D Sciences, and negative control was an antibody to Keyhole Limpet Hemocyanin produced at Abgenix) were added and the plates incubated at room temperature for 2 hours. After incubation, the plates were washed three times with washing buffer. […] After incubation, the plates were washed three times with washing buffer and 100 μL/well of TMB (BioFX Lab. Cat. #TMSK-0 100-01) was added and the plates allowed to develop for about 10 minutes.

[2] = molecular target: T1, human monocyte chemo-attractant …; assay: ELISA, hybridoma supernatant on coated MCP-1; ELISA, hybridoma supernatant on plate-coated non-reduced MCP-1 (2 ug/mL)
Method: Selection of candidate antibodies for ELISA. After 14 days of culture, hybridoma supernatants were screened for MCP-1-specific monoclonal antibodies. The ELISA plates (Fisher, Cat. No. 12-565-136) were coated with 50 μl/well of MCP-1 (2 μg/mL) in Coating Buffer (0.1 M Carbonate Buffer, pH 9.6, NaHCO₃8.4 g/L), then incubated at 4° C. overnight. After incubation, the plates were washed with Washing Buffer (0.05% Tween 20 in PBS) three times. 200 μl/well Blocking Buffer (0.5% BSA, 0.1% Tween 20, 0.01% Thimerosal in 1× PBS) were added and the plates incubated at room temperature for 1 hour. After incubation, the plates were washed with Washing Buffer three times. 50 μL/well of hybridoma supernatants, and positive and negative controls were added and the plates incubated at room temperature for 2 hours.
The positive control used throughout was XMG2 MCP-1 Group 1, footpad N160-7 and the negative control was XMG2 KLH Group 1, footpad L627-6. After incubation, the plates were washed three times with Washing Buffer. […] In the secondary screen, three sets of samples (positives in first screening) were screened, one set for hIgG detection, one set for hKappa detection, and one set for hlambda detection. After incubation, the plates were washed three times with Washing Buffer. 100 μL/well of TMB (BioFX Lab. Cat. #TMSK-0100-01) were added and the plates allowed to develop for about 10 minutes (until negative control wells barely started to show color), then 50 μL/well stop solution (TMB Stop Solution (BioFX Lab. Cat. #STPR-0100-01) were added and the plates read on an ELISA plate reader at wavelength 450 nm. The OD readings from the positive wells are presented in Table 9.

recombinant human MCP-3 [3] = molecular target: T2, recombinant human MCP-3 (human, UniProt P80098 24-99); assay: cell-based or functional assay
[4] = molecular target: T3, recombinant mouse JE/MCP-1 (mouse, UniProt P10148 24-148); assay: ELISA, coated antigen
T3 construct: also called rmJE/MCP-1
How it was run: (§1)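 Plates coated overnight at 4° C with MCP-1, MCP-2, MCP-3, MCP-4, RANTES, GRO-alpha, MIP-1 alpha, eotaxin, rat MCP-1 or mouse JE (2 μg/ml, carbonate buffer pH 9.6), blocked with BSA. Hybridoma supernatants bound 2 hours at room temperature; TMB colour developed about 10 minutes.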

human eotaxin = molecular target: T4, human eotaxin (human, UniProt P51671 24-97); assay: ELISA, coated antigen
T4 construct: also called hEotaxin
How it was run: as §1

human GRO/MGSA = molecular target: T5, human GRO/MGSA (human, UniProt P09341 35-107); assay: ELISA, coated antigen
T5 construct: also called hGRO/MGSA; GRO-alpha
T5 sequence (looked up): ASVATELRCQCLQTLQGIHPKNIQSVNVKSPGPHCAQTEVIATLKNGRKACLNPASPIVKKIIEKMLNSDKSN
How it was run: as §1

human RANTES = molecular target: T6, human RANTES (human, UniProt P13501 24-91); assay: ELISA, coated antigen
T6 construct: also called hRANTES
T6 sequence (looked up): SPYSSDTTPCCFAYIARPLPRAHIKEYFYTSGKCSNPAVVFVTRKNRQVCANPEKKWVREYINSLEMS
How it was run: as §1

recombinant human MCP-2 [5] = molecular target: T7, recombinant human MCP-2 (human, UniProt P80075 24-99); assay: ELISA, coated antigen
T7 construct: also called rhMCP-2
T7 sequence (looked up): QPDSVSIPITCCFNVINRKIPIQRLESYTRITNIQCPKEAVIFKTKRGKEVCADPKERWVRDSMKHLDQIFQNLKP
How it was run: as §1

recombinant human MCP-4 [6] = molecular target: T8, recombinant human MCP-4 (human, UniProt Q99616 24-98, limits assumed); assay: ELISA, coated antigen
T8 construct: also called rhMCP-4
How it was run: as §1

recombinant human MCP-3 [7] = molecular target: T2, recombinant human MCP-3; assay: ELISA, coated antigen
How it was run: as §1

human MIP-1-alpha = molecular target: T9, human MIP-1-alpha (human, UniProt P10147 24-92, limits assumed); assay: ELISA, coated antigen
T9 construct: also called hMIP-1-alpha
T9 sequence (looked up): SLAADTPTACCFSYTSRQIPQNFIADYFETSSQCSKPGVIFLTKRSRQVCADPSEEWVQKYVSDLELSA
How it was run: as §1

rat MCP-1 = rat MCP-1 (rat, UniProt P14844 24-148); assay: ELISA, coated antigen
How it was run: as §1

[8] = molecular target: T1, human monocyte chemo-attractant …; assay: cell-based or functional assay
recombinant human MCP-2 [9] = molecular target: T7, recombinant human MCP-2; assay: Biacore 2000, mAb immobilized, antigen injected
Method: (§2) The interaction analysis was performed at 25° C. using two CM5 chips docked in Biacore 2000 optical biosensors. Individual flow cells on each chip were activated with a 7-minute injection of NHS/EDC, carbohydrazide was coupled through the NHS ester using a 7-minute injection, and the residual activated groups were blocked with a 7-minute injection of ethanolamine. […] The oxidized antibody was desalted into 10 mM sodium acetate, pH 5.0, to couple the antibody to the carbohydrazide-modified surface. […] The mAb surfaces were stabilized by reducing the hydrazone bond with 0.1 M sodium cyanoborohydride. The antigen/antibody interaction was tested by injecting duplicate antigen samples diluted in running buffer (10 mM HEPES, 150 mM NaCl, 0.005% surfactant, 200 μg/mL BSA, pH 7.4), in a 300-fold concentration range. The surfaces were regenerated with a 12-second pulse of 15 mM H₃PO₄.

recombinant human MCP-4 [10] = molecular target: T8, recombinant human MCP-4; assay: Biacore 2000, mAb immobilized, antigen injected
Method: as §2

recombinant human MCP-3 [11] = molecular target: T2, recombinant human MCP-3; assay: Biacore 2000, mAb immobilized, antigen injected
Method: as §2

[12] = molecular target: T1, human monocyte chemo-attractant …; assay: Biacore 2000, mAb immobilized, antigen injected; Biacore, 25 C, native MCP-1 injected over immobilized mAb 3.11.2 (250 RU)
Method: as §2

T1 sequence (P13500 24-99): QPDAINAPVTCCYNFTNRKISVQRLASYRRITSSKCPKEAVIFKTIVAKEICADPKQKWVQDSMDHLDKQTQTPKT
T2 sequence (P80098 24-99 limits assumed): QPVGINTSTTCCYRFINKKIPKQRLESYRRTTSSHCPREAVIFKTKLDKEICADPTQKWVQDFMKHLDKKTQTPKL
T8 sequence (Q99616 24-98 limits assumed): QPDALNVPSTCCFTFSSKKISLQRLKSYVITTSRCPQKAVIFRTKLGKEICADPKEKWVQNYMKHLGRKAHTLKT
T4 sequence (P51671 24-97 limits assumed): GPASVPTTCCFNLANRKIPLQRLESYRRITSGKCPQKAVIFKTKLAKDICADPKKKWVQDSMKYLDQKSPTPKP
Sequence of rat MCP-1 (P14844 24-148 limits assumed): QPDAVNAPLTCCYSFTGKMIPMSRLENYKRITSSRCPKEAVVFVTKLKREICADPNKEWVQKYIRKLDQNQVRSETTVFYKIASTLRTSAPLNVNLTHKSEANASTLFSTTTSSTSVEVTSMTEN
T3 sequence (P10148 24-148 limits assumed): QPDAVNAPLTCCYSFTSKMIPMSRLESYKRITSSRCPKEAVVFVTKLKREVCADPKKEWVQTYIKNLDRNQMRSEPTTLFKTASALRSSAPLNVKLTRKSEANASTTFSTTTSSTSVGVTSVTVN

B1: anti-MCP-1 mAb 3.11.1 (antibody, human IgG4, kappa, V domains shown)
VH: QVQLQESGPGLVKPSQTLSLTCTVSGGSISSGGNYWNWIRQHPGKGLEWIGYIYYSGNTYYNPSLKSRITISIDTSKNQFSLTLSSVTAADTAVYYCARDGGDDAFDIWGQGTMVTVSS
VL: DIQMTQSPSSLSASVGDRVTITCQASQDISNYLNWYQQKPGKAPKLLIYDASNLETGVPSRFSGSGSGTDFTFTINSLQPEDIATYYCQEYNNLPYSFGQGTKLEIKR
ELISA OD [1]: 0.803 OD450
ELISA OD-MCP-1 [2]: 4 OD450
IC50, inhibition of MCP-3-induced migration of THP-1 cells (chemotaxis assay, MCP3 at 0.166 nM) (recombinant human MCP-3 [3]): 0.139 nM
ELISA OD [4]: 0.063 OD450
ELISA OD (human eotaxin): 0.339 OD450
ELISA OD (human GRO/MGSA): 0.054 OD450
ELISA OD (human RANTES): 0.064 OD450
ELISA OD (recombinant human MCP-2 [5]): 0.336 OD450
ELISA OD (recombinant human MCP-4 [6]): 0.981 OD450
ELISA OD (recombinant human MCP-3 [7]): 1.32 OD450
ELISA OD (human MIP-1-alpha): 0.053 OD450
ELISA OD (rat MCP-1): 0.057 OD450
IC50 Ca++ Flux [8]: 0.092 µg/mL
IC50 Chemotaxis [8]: 0.33 µg/mL
Kd (recombinant human MCP-2 [9]): 0.046 nM
koff (recombinant human MCP-2 [9]): 0.012 s⁻¹
kon (recombinant human MCP-2 [9]): 2.6e+08 M⁻¹ s⁻¹
Kd (recombinant human MCP-4 [10]): 0.0037 nM
koff (recombinant human MCP-4 [10]): 0.00055 s⁻¹
kon (recombinant human MCP-4 [10]): 1.5e+08 M⁻¹ s⁻¹
Kd (recombinant human MCP-3 [11]): 0.049 nM
koff (recombinant human MCP-3 [11]): 0.0074 s⁻¹
kon (recombinant human MCP-3 [11]): 1.5e+08 M⁻¹ s⁻¹
Kd [12]: 0.0033 nM
koff [12]: 0.001 s⁻¹
kon [12]: 3e+08 M⁻¹ s⁻¹
